Patent US20250074972A1, “ANTIBODIES AND METHODS FOR GENERATING THE SAME” (priority 2021, published 2025)
Entries after “also recorded” stand apart in the source; their conditions may differ.

B1: 1B11 scAb: anti-Pga31 single chain antibody from naive human library; amino acid sequence SEQ ID NO: 2 (protein)
scFv: EVQLLESGGGVVQPGRSLRLSCAASGFTFSSYGMHWVRQAPGKGLEWVAVISYDGSNKYYADSVKGRFTISRDNSKNTLYLQMNSLRAEDTAVYYCARDRSGWGSLDYWGQGTLVTVSSLEGGGGSGGGGSGGGASDIVMTQSPDSLAVSLGERATINCKSSQNVLYSSNNKNYLAWYQQKSGQPPKLLIYWASTRESGVPDRFSGSGSGTDFTLTISSLQAEDVAVYYCQQYYSTPRTFGQGTKVEIK
modifications: 1B11 Amino Acid Sequence

How the values were obtained:
C. albicans (SC5314) = assay: Galleria mellonella infection model, C. albicans; format: in vivo, Candida albicans; details: for survival of larvae: Galleria mellonella infected with 5×10^5 C. albicans, monitored 60 h, Mantel-Cox p<0.0001
Experimental: (§1) Galleria mellonella is a reliable infection model to test and compare antibody efficacy by monitoring the survival of the larvae. Ten Galleria mellonella larvae (Livefoods Direct Ltd, Sheffield, UK) with bodyweights of =250-300 mg were used for each test group and standardised inoculum of 5×10^5 C. albicans and 5×10^7 C. auris yeast cells/larvae were injected using Hamilton syringe (Cole-Parmer, UK, washed twice with 100% ethanol and sterile dH2O between every 5 injections) via the last pro-leg. Two control groups, one with no injection and the second with PBS injection were also set up. After injection, larvae were incubated for 48-60 h at 37° C. Survival was monitored first after 24 h and then every 6 h. A Kaplan-Meier plot was generated to assess the survival of larvae infected with C. albicans and C. auris, monitoring the survival rate for 60 h (FIG. 8).
(§2) In addition, the fungal burden of various test groups was calculated by measuring the number of colony forming units (CFU) as an indicator of fungal growth within the larvae and early fungicidal/fungistatic activity of the antibody. […] (FIG. 9A).

[1] = system: Candida albicans strain SC5314; assay: Mouse model of disseminated Candidiasis, Study 1; format: in vivo; details: caspofungin 1 mg/kg at 24 h post-infection; p=0.004
Experimental: In study 1, the protective effect of mAb 1B11 as a prophylactic agent with single dosing before and after the administration of fungal inoculum was investigated. Female BALB/c mice, 7-9 weeks old were purchased from Envigo Ltd. and randomly assigned to groups of 6 for treatment and control. The Candida albicans inoculum was prepared by growing strain SC5314 in NGY medium for 16 h, shaking at 30° C. Cells were harvested and washed with saline, then counted and resuspended in saline to provide an inoculum of approx. 2×10^4 CFU/g mouse body weight in 100 μl. Mice were infected intravenously.
Actual inoculum level was determined by plating dilutions of the inoculum on Sabouraud dextrose agar and incubating overnight at 30° C. It was determined to be 2.2×10^4 CFU/g mouse body weight.
Animals were allocated into four main groups as explained below. The treatment dose of 1B11 mAb was 15 mg/kg per mouse. All treatments were administered intraperitoneally (IP) in 150 μl saline. […]
Mice were monitored and weighed every day and were culled on day 4 post-infection and the kidneys removed aseptically. […] Burdens were determined by plating out kidney homogenate and counting colonies after 48 h growth at 30° C. […]

[2] = system: Candida albicans strain SC5314; assay: Mouse model of disseminated Candidiasis, Study 3; format: in vivo; details: 1 mg/kg at 24 h and 72 h post-infection; day 7
Experimental: In study 3, the protective effect of mAb 1B11 as a prophylactic agent with single dosing 3 hours before infection followed by two dosing 24 h and 72 h post infection was investigated.
In addition, a treatment only arm with the administration of 1B11 mAb 24 h and 72 h post infection was also included.
Animals were allocated into four main groups as explained below. The treatment dose of 1B11 mAb was 12.5 mg/kg per mouse. All treatments were administered intraperitoneally (IP) in 200 μl saline.
The study plan is shown in FIG. 19 and is as follows: • Group 1—Pre-treatment with 1B11 mAb at 3 h before infection, followed by treatment at 24 h and 72 h post-infection. • Group 2—Injected with saline at 3 h before infection, treatment with 1B11 at 24 h and 72 h post-infection. • Group 3—Saline injections at all three time points • Group 4—caspofungin treatment (1 mg/kg) at 24 h and 72 h post-infection
Mice were monitored and weighed every day and were culled on day 7 post-infection and the kidneys removed aseptically. Kidneys were split […], with one half of each kidney used to determine burdens, one half frozen on OCT and one half fixed in formalin at 4° C. Burdens were determined by plating out kidney homogenate and counting colonies after 48 h growth at 30° C. Statistical comparisons were carried out using IBM SPSS version 24. […]

[3] = system: total cell lysates of WT C. albicans (SC5314); assay: Pga31 scAbs binding ELISA on total cell lysates of WT C. albicans treated with or without caspofungin; set-up: species or system Candida albicans; details: absorbance 450 nm, cells treated or untreated with 0.032 μg/ml caspofungin
Experimental: (§3) The reaction was stopped using 1 M H2SO4 and the absorbance values measured using a microplate reader at absorbance 450 nm. For total cell lysate ELISA, C. albicans WT and pga31 single mutant strain overnight cultures were inoculated into fresh YPD at OD600 nm of 0.1-0.2, grown for 3-4 h at 30° C. until OD of 0.5-0.6 was reached and then treated with caspofungin (0.032 μg/ml) for 90 min. After 90 min growth cells were harvested, centrifuged for 5 min at 4000 rpm and washed and cell lysate was prepared. This was used to coat ELISA plates at 37° C. for 1 h, plates were washed and blocked with 2% MPBS as before, followed by the two-fold serial dilution of scAb samples.

C. auris (1716) [4] = assay: Biofilm formation assay (crystal violet), C. auris; format: cell-based, Candida auris
Experimental: (§4) The ability of 1B11 scAb in preventing the formation of biofilm in C. albicans ([…]) and C. auris (1716) was tested. The growth medium used were RPMI and 20% Foetal Calf Serum (FCS) and the assay was carried out in 96 well microtitre plates. Test antibody 1B11 scAb at a starting concentration of 160 μg/ml was double diluted down the plate and the top row served as positive control with cells only. The final number of cells added to each well was kept constant at 1×10^5/ml and the plate was incubated at 37° C. for 24 h. Following incubation, the biofilm plate was gently washed two times with PBS to remove non-adhering cells and allowed to dry at room temperature overnight. The biofilm was stained with 100 μl 0.05% crystal violet for 20 min followed by washing with Millipore Q water and 200 ul of 100% ethanol. Contents of each well were transferred to a new plate and absorbance was read at 570 nm wavelength.

C. albicans (SC3514) = assay: Biofilm formation assay (crystal violet), C. albicans; format: cell-based, Candida albicans
Experimental: as §4

C. auris (1716) [5] = assay: Galleria mellonella infection model, C. auris; format: in vivo, Candida auris; details: for survival of larvae: Galleria mellonella infected with 5×10^7 C. auris, monitored 60 h, versus non-treated, Mantel-Cox p<0.0001
Experimental: as §1, §2

[6] = system: cell lysates of pga314 mutant strain; assay: Pga31 scAbs binding ELISA on cell lysates of pga31 mutant strain; set-up: species or system Candida albicans; details: with or without 0.032 μg/ml caspofungin
Experimental: as §3

[7] = at higher concentrations (start 160 μg/ml, double diluted), 24 h incubation

Molecule | survival of larvae (C. albicans (SC5314)) | kidney organ burdens compared to saline treated mice [1] | kidney burdens, caspofungin group compared to saline treated group [2] | scAb binding to lysates of caspofungin treated versus untreated cells [3] | fungal burden (colony forming units) in larvae (C. albicans (SC5314); versus non-treatment group, statistically significant in 24 h group) | C. auris growth under biofilm-inducing conditions (C. auris (1716) [4]; 24 h, RPMI or 20% FCS) | biofilm formation (C. auris (1716) [4]; [7]) | biofilm biomass (crystal violet) compared to the control (C. auris (1716) [4]; both RPMI and 20% FCS conditions, T-test, p<0.0001, p<0.0004) | C. albicans growth under biofilm-inducing conditions (C. albicans (SC3514); 24 h, especially in 20% foetal calf serum) | biofilm biomass (crystal violet) compared to the control (C. albicans (SC3514); RPMI conditions, T test, p<0.0001) | biofilm formation (C. albicans (SC3514); [7]) | fungal burden (colony forming units) in larvae (C. auris (1716) [5]; 4 h and 24 h incubation, versus non-treatment group) | survival of larvae (C. auris (1716) [5]) | survival of larvae (C. auris (1716) [5]; listed as anti-Pga31 antibody) | scAb binding to mutant strain lysate [6]
CC[C@H](C)C[C@H](C)CCCCCCCCC(=O)N[C@H]1C[C@@H](O)[C@@H](NCCN)NC(=O)[C@@H]2[C@@H](O)CCN2C(=O)[C@H]([C@H](O)CCN)NC(=O)[C@H]([C@H](O)[C@@H](O)c2ccc(O)cc2)NC(=O)[C@@H]2C[C@@H](O)CN2C(=O)[C@H]([C@@H](C)O)NC1=O [caspofungin, reference compound] | significant survival percentage; also recorded: only had marginal effect | significant decrease | highly significant difference | – | – | – | – | – | – | – | – | – | – | – | –
B1 | significant survival percentage | – | – | increase in scAb binding | lower level of growth inhibition | did not significantly inhibit C. auris growth under biofilm-inducing conditions except at the highest concentration tested | able to inhibit biofilm formation | significantly different | significantly inhibited | significantly different | able to inhibit biofilm formation | inhibited; also recorded: notable inhibition of growth | significant survival percentage | survived significantly more | lack of scAb binding
